Assay results from patent US8450481B2, “Compounds for inhibiting protein aggregation, and methods for making and using them” (The Regents of the University of California, priority 2007, dated 2013).

Legend:
[1] = test system: HEK293T cells expressing α-syn; assay: ion currents in HEK293T cells expressing α-syn; assay type: cell-based; settings: extracellular application of 500 μM Zn^2+, +80 mv
Excerpt: FIG. 3K, FIG. 3L and FIG. 3M graphically illustrate data showing representative currents elicited by depolarizing the cells from a holding potential of −50 mv to a series of test potentials ranging from −80 to +80 mv, and corresponding current-voltage relationship (E; means±SE) in transduced cells. Cells expressing α-syn display a significant increase in ion currents. FIG. 3N left panel graphically illustrates representative currents at +80 mv (left panel) before (Cont), during (Zn^2+) and after (Wash) application of 500 μM Zn^2+. FIG. 3N, right panel, graphically illustrates the time course of the change in current density before, during, and after extracellular application of Zn^2+. The arrows correspond to the currents shown in the left panel (Cont, a; Zn^2+, b; and Washout, c). The increased currents in cells expressing α-syn are attenuated by Zn^2+.

SYN [2] = biological target: T1, SYN (Homo sapiens, UniProt P37840); assay: cell free SYN aggregation assay with immunoblot; assay type: biochemical; settings: for blocking SYN aggregation in cell free system, compared with the other peptides and controls: immunoblot
Experimental: The peptides of the invention were tested in a cell free system with the appropriate controls (smaller and larger peptides, amino acid (aa) substitutions, scrambled sequence). For this purpose recombinant SYN (10 uM) was incubated at 37 and 65 degrees C. for 0, 4, 6, 12 and 24 with the peptides at 0, 1 and 10 uM. Control experiments where performed with beta and gamma-synuclein as well as with a mutant SYN molecule that cannot bind the peptide. The mixture was run in a gel, followed by immunoblot testing with SYN antibodies.

[3] = test system: neuronal cultures overexpressing α-syn; assay: neuronal viability by LDH assay in neuronal cultures overexpressing α-syn; assay type: cell-based
Excerpt: FIG. 17 illustrates the effects of a peptide blocker of α-syn aggregation of this invention in neuronal viability.

[4] = test system: neuronal cultures overexpressing α-syn; assay: intracellular calcium influx by Fluo-4 and FLIPR assay in neuronal cultures overexpressing α-syn; assay type: cell-based; settings: after 24 hrs at 37° C., compared to vehicle and scrambled peptide controls
Excerpt: FIG. 18 illustrates the effects of a peptide blocker of α-syn aggregation of this invention in neuronal calcium levels. FIG. 18A is a micrograph illustration showing that in neuronal cultures overexpressing α-syn there is a significant time dependent increase in intracellular calcium influx as determined by Fluo-4 and the FLIPR assay. […] (arrow) compared to vehicle and scrambled peptide controls. Data from these studies is graphically summarized on the right hand panels.

α-syn = biological target: T2, α-syn (Homo sapiens, UniProt P37840); assay: intraventricular infusion in α-syn transgenic mice; assay type: in vivo
T2 construct: from tissue; host or cells: brain (hippocampus) of thy1-α-syn transgenic mice
Experimental: FIG. 19 illustrates the effects of peptide blocker of α-syn aggregation in vivo in α-syn (α-syn) transgenic mice. FIG. 19A illustrates the experimental design: for these studies the thy1-overexpressing α-syn received intraventricular infusions with osmotic minipumps of control scrambled peptide, or the exemplary peptide of this invention 96-102 KKDQLGK (SEQ ID NO:1) for 6 weeks, at 30 μM peptide, where 200 μl of solution is minipumped into the lateral ventricle of the animal.

SYN [5] = biological target: T1, SYN; assay: α-syn aggregation/accumulation in neuronal cultures overexpressing α-syn (B103 neuronal cell line, lentivirus SYN); assay type: cell-based; set-up: expressed in transfected cells; host or cells: B103 neuronal cell line, lentiviral transduction; settings: 24 hrs
Experimental: The B103 neuronal cell line was infected with a lentivirus expressing SYN (wildtype) or GFP (control) and cells expressing SYN were exposed to the peptides at 0, 1 and 10 uM for 24 hrs. Cells were assayed for SYN aggregation by immunoblot, neurite outgrowth and survival. […] The peptide KKDQLGK (SEQ ID NO:1) and control peptides can be injected into the brain of SYN transgenic (tg) mice to test for in vivo effects.

Row | α-syn aggregation, cell free immunoblot assays (SYN [2]; at 37° C. and 65° C.) | levels of monomeric and aggregated α-syn, immunoblot (α-syn; infusion, compared to scrambled peptide controls) | α-syn accumulation in neuronal cultures overexpressing α-syn (SYN [5]; peptide at 1 uM, compared to vehicle) | Compound | increased ion currents in cells expressing α-syn [1] | blocking SYN aggregation in cell free system, compared with the other peptides and controls (SYN [2]) | neuronal viability as assayed by the LDH assay [3] | neuronal calcium influx [4] | neuronal α-syn accumulation in the hippocampus (α-syn; intraventricular infusion 6 weeks, 30 μM peptide, compared to scrambled peptide) | blocking SYN aggregation in neuronal cell based system, compared with the other peptides and controls (SYN [5]; immunoblot, B103 cells expressing SYN)
1 |  |  |  | [Zn+2] [Zn^2+] | attenuated |  |  |  |  | 
2 |  |  |  | EKTKEQVTN [amino acids 57-65 of SYN] |  | most effective at blocking SYN aggregation |  |  |  | 
3 | reduced aggregation | significant reduction | reduced accumulation of α-syn dimer | KKDQLGK [amino acids 96-102 of human SYN] |  | most effective at blocking SYN aggregation | improved neuronal viability | reduced neuronal calcium influx | significant reduction in neuronal α-syn accumulation | most effective at blocking SYN aggregation
